Molecular target: semi-synthetic KcsA^(70,82) channel (UniProt P0A334)
Assay: SDS-PAGE

semi-synthetic KcsA^(70,82) channel (from UniProt P0A334 1-69; P0A334 82-160) (natural protein)
stoichiometry N: 4

From article PMC2811064
